Test results as given in doi:10.1101/2021.09.24.461649 (bioRxiv, 2021).

Key:
EccA1 ATPase, wild type = EccA1 ATPase, wild type (M. tuberculosis H37Rv, UniProt P9WPH9 1-573); test: SPR
SEC = biological target: the molecule itself; test: SEC

Chain of EccA1 ATPase, wild type (P9WPH9 whole entry): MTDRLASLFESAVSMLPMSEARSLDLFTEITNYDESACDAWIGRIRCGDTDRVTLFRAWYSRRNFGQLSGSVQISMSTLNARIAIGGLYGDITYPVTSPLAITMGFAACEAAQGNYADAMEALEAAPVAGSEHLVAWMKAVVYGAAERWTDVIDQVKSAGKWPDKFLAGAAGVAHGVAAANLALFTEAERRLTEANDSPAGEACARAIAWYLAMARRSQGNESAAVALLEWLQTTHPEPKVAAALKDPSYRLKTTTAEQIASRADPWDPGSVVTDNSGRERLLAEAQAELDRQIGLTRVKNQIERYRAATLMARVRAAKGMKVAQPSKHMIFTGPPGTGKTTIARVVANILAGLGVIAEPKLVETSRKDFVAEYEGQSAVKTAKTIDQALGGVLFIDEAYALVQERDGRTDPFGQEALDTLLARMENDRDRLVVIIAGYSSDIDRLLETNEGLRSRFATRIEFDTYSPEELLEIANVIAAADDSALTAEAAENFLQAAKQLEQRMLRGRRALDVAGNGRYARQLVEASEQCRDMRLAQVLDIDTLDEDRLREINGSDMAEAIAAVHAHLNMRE

| Binder | Kd (EccA1 ATPase, wild type) | stoichiometry N (SEC) |
| --- | --- | --- |
| EspC-Δ5 truncated mutant (domain or fragment) MTENLTVQPERLGVLASHHDNAAVDASSGVEAAAGLGESVAITHGPYCSQFNDTLNVYLTAHNALGSSLHTAGVDLAKSLRIAAKIYSEADEAWRKAID | ~6.7 µM | 6 |
| EspC-Δ10 truncated mutant (domain or fragment) MMTENLTVQPERLGVLASHHDNAAVDASSGVEAAAGLGESVAITHGPYCSQFNDTLNVYLTAHNALGSSLHTAGVDLAKSLRIAAKIYSEADEA | ~8.1 µM | 6 |
| EspC (ESX-1 secreted protein C), wild type (natural protein) MMTENLTVQPERLGVLASHHDNAAVDASSGVEAAAGLGESVAITHGPYCSQFNDTLNVYLTAHNALGSSLHTAGVDLAKSLRIAAKIYSEADEAWRKAIDGLFT | ~0.14 µM |  |
| EspC-Δ20 truncated mutant (domain or fragment) MMTENLTVQPERLGVLASHHDNAAVDASSGVEAAAGLGESVAITHGPYCSQFNDTLNVYLTAHNALGSSLHTAGVDLAKSLRIA |  | 6 |
